According to paper PMC11610247:

What was measured:
[1] = target: SNAP-flag-tagged GLP1R p.R380C (human) (UniProt P43220); assay: AlphaScreen or HTRF
[2] = target: SNAP-flag-tagged WT GLP1R (glucagon-like peptide 1 receptor) (human) (UniProt P43220); assay: AlphaScreen or HTRF

exendin-4 (from UniProt P26349 48-87) (peptide)
IC50 [1]: 400 nM

exendin-4 (from UniProt P26349 48-87) (peptide; other documents disagree on this pair)
pIC50 [2]: 8.13
